This note sets out measurements from patent US20130171059A1 (AbbVie / Abbott, published 2013).

For orientation: Kd means the constant that tells how readily two partners part at equilibrium. Broadly, the koff is a measure of how fast the partners let go of each other. What is called kon is a measure of how fast the partners come together.

Assay [1] deals with T1, Recombinant Human β-NGF (human, UniProt P01138 122-239, limits assumed). The experiment in a line: cell-based or functional assay.
The target of assay [2] is T2, Recombinant Human TNF-α/TNFSF1A (human, UniProt P01375 77-233). In words: cell-based or functional assay.
T2 sequence (P01375 77-233 limits assumed): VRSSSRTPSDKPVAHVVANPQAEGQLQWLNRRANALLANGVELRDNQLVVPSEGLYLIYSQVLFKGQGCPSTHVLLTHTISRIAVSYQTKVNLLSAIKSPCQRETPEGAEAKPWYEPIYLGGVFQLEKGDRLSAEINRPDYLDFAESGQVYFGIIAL
Assay [3] deals with T1, Recombinant Human β-NGF. In words: SPR (Biacore). On the procedure: (§1) The BIACORE assay (Biacore, Inc, Piscataway, N.J.) determined the affinity of antibodies or DVD-Ig proteins with kinetic measurements of on-rate and off-rate constants. Binding of antibodies or DVD-Ig proteins to a target antigen (for example, a purified recombinant target antigen) was determined by surface plasmon resonance-based measurements with a Biacore® 1000 or 3000 instrument (Biacore® AB, Uppsala, Sweden) using running HBS-EP (10 mM HEPES [pH 7.4], 150 mM NaCl, 3 mM EDTA, and 0.005% surfactant P20) at 25° C. All chemicals were obtained from Biacore® AB (Uppsala, Sweden) or otherwise from a different source as described in the text. For example, approximately 5000 RU of goat anti-mouse IgG, (Fcγ), fragment specific polyclonal antibody (Pierce Biotechnology Inc, Rockford, Ill.) diluted in 10 mM sodium acetate (pH 4.5) was directly immobilized across a CM5 research grade biosensor chip using a standard amine coupling kit according to manufacturer's instructions and procedures at 25 μg/ml. Unreacted moieties on the biosensor surface were blocked with ethanolamine. Modified carboxymethyl dextran surface in flowcell 2 and 4 was used as a reaction surface. Unmodified carboxymethyl dextran without goat anti-mouse IgG in flow cell 1 and 3 was used as the reference surface. For kinetic analysis, rate equations derived from the 1:1 Langmuir binding model were fitted simultaneously to association and dissociation phases of all eight injections (using global fit analysis) with the use of Biaevaluation 4.0.1 software. Purified antibodies or DVD-Ig proteins were diluted in HEPES-buffered saline for capture across goat anti-mouse IgG specific reaction surfaces. Antibodies or DVD-Ig proteins to be captured as a ligand (25 μg/ml) were injected over reaction matrices at a flow rate of 5 μl/minute. The association and dissociation rate constants, kₒₙ (M⁻¹s⁻¹) and koff (s⁻¹) were determined under a continuous flow rate of 25 μl/minute. Rate constants were derived by making kinetic binding measurements at different antigen concentrations ranging from 10-200 nM. The equilibrium dissociation constant (M) of the reaction between antibodies or DVD-Ig proteins and the target antigen was then calculated from the kinetic rate constants by the following formula: KD=koff/kₒₙ. Binding was recorded as a function of time and kinetic rate constants were calculated.
A general note: In SPR one partner is held on a chip, and binding of the other changes the refractive index at the surface.

The target in assay [4] is T2, Recombinant Human TNF-α/TNFSF1A. In words: SPR (Biacore). On the procedure: as §1
Assay [5] has as its target T1, Recombinant Human β-NGF. The experiment in a line: SPR (Biacore); antibody captured on anti-IgG Fc chip, antigen 10-200 nM in flow, 25 C, HBS-EP pH 7.4; koff 6.80E-06 is near the assay floor of 10^-6 s^-1. The protocol: The BIACORE assay (Biacore, Inc, Piscataway, N.J.) determined the affinity of antibodies or DVD-Ig proteins with kinetic measurements of on-rate and off-rate constants. Binding of antibodies or DVD-Ig proteins to a target antigen (for example, a purified recombinant target antigen) was determined by surface plasmon resonance-based measurements with a Biacore® 1000 or 3000 instrument (Biacore® AB, Uppsala, Sweden) using running HBS-EP (10 mM HEPES [pH 7.4], 150 mM NaCl, 3 mM EDTA, and 0.005% surfactant P20) at 25° C. All chemicals were obtained from Biacore® AB (Uppsala, Sweden) or otherwise from a different source as described in the text. […] The association and dissociation rate constants, kₒₙ (M⁻¹s⁻¹) and koff (s⁻¹) were determined under a continuous flow rate of 25 μl/minute. […] The equilibrium dissociation constant (M) of the reaction between antibodies or DVD-Ig proteins and the target antigen was then calculated from the kinetic rate constants by the following formula: KD=koff/kₒₙ. Binding was recorded as a function of time and kinetic rate constants were calculated.

Assay [6] concerns the target T3, Recombinant Human SOST (human, UniProt Q9BQB4 24-213).
T3 construct: Biacore used the R&D reagent; also called Human Sclerostin
T3 sequence (looked up): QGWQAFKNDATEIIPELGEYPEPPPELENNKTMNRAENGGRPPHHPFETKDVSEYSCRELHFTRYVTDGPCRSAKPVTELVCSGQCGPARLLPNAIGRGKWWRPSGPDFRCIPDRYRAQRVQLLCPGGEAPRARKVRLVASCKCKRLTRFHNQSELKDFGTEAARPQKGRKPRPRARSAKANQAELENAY
The experiment in a line: SPR (Biacore). On the procedure:
as §1

Assay [7] deals with T3, Recombinant Human SOST. The experiment in a line: cell-based or functional assay.

A value given as a limit tells only on which side of the number the result lay.

T1 sequence (P01138 122-239 limits assumed): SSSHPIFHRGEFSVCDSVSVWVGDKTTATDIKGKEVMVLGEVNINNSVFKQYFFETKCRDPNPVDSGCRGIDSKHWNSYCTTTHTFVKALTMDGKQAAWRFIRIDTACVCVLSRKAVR

B1: DVD1960 (bispecific antibody, not shown: a dimerising Fc or GST)
heavy: DIVMTQSHKFMSTTVGDRVSITCKASQAVSSAVAWYQQKPGQSPKLLIYWASTRHTGVPDRFTGSGSVTDFTLTIHNLQAEDLALYYCQQHYSTPFTFGSGTKLEIKRTVAAPQVQLQESGPGLVKPSETLSLTCTVSGFSLIGYDLNWIRQPPGKGLEWIGIIWGDGTTDYNSAVKSRVTISKDTSKNQFSLKLSSVTAADTAVYYCARGGYWYATSYYFDYWGQGTLVTVSS
light: QVQLKESGPGLVAPSQSLSITCTVSGFSLTDYGVNWVRQPPGKGLEWLGMIWGDGSTDYDSTLKSRLSISKDNSKSQIFLKMNSLQTDDTARYYCAREWHHGPVAYWGQGTLVTVSAASTKGPDIQMTQSPSSLSASVGDRVTITCRASQSISNNLNWYQQKPGKAPKLLIYYTSRFHSGVPSRFSGSGSGTDFTFTISSLQPEDIATYYCQQEHTLPYTFGQGTKLEIKR
In the case of B1, the C-Terminal VD NGF Neutralization Assay IC50 (TF-1 cell proliferation) in assay [1] was determined as 3.12 nM. Further, the N-Terminal VD TNFa Neutralization Assay IC50 (L929 cells) in assay [2] turned out to be 0.086 nM.

B2: DVD1984 (bispecific antibody)
DVD-H: DIQMTQSPSSLSASVGDRVTITCRASQGIRIDLGWYQQKPGKAPKRLIYAASTLQSGVPSRFSGSGSGTEFIFTISSLQPEDFASYYCLQHKSYPLTFGGGTKVEIKRTVAAPQVQLQESGPGLVKPSETLSLTCTVSGFSLIGYDLNWIRQPPGKGLEWIGIIWGDGTTDYNSAVKSRVTISKDTSKNQFSLKLSSVTAADTAVYYCARGGYWYATSYYFDYWGQGTLVTVSS
DVD-L: QVQLVESGGGVVQPGRSLRLSCAASGFTFSSYDMHWVRQAPGKGLEWVAVIWSDGSIKYYADSVKGRFTISRDNSKNTLYLQMNSLRAEDTAVYYCAREVESAMGGFYYNGMDVWGQGTTVTVSSASTKGPDIQMTQSPSSLSASVGDRVTITCRASQSISNNLNWYQQKPGKAPKLLIYYTSRFHSGVPSRFSGSGSGTDFTFTISSLQPEDIATYYCQQEHTLPYTFGQGTKLEIK
notes: VH/VL crossover DVD-Ig; also called DVD1984H + DVD1984L; copies: 2 + 2
As for B2, the “C-Terminal VD NGF Neutralization Assay IC50 (TF-1 cell proliferation)” value in assay [1] amounted to 0.593 nM. For the same molecule, in assay [3], the Kd is 0.096 nM, the off-rate (koff) is 4.3e-05 s⁻¹ and the kon came to 450000 M⁻¹ s⁻¹. Moreover, in assay [4], the Kd is 0.015 nM, the koff came to 3.7e-05 s⁻¹ and the kon was determined as 2.5e+06 M⁻¹ s⁻¹. For the same molecule, the “N-Terminal VD TNFa Neutralization Assay IC50 (L929 cells)” value in assay [2] stood at 0.017 nM.

B3: AB020 (antibody, V domains shown)
VH: QVQLQESGPGLVKPSETLSLTCTVSGFSLIGYDLNWIRQPPGKGLEWIGIIWGDGTTDYNSAVKSRVTISKDTSKNQFSLKLSSVTAADTAVYYCARGGYWYATSYYFDYWGQGTLVTVSS
VL: DIQMTQSPSSLSASVGDRVTITCRASQSISNNLNWYQQKPGKAPKLLIYYTSRFHSGVPSRFSGSGSGTDFTFTISSLQPEDIATYYCQQEHTLPYTFGQGTKLEIKR
notes: Parent antibody; also called NGF parent antibody
B3: the “NGF Neutralization Assay IC50 (TF-1 cell proliferation)” value in assay [1] was 0.008 nM. Also, in assay [3], the koff amounted to 6.8e-06 s⁻¹ and the kon was determined as 2.5e+06 M⁻¹ s⁻¹. Further, the Kd in assay [5] came out at 0.0027 nM.

B4: DVD1990 (bispecific antibody)
DVD-H: EIVMTQSPATLSVSPGERATLSCRASQSVSSNLAWYQQKPGQAPRLLIHGASIRATGLPARFSGSGSGTEFTLTISSLQSEDFAVYYCQQYNYWWTFGQGTKVEIKRTVAAPEVQLQQSGPELVTPGASVKISCKASGYTFTDHYMSWVKQSHGKSLEWIGDINPYSGETTYNQKFKGTATLTVDKSSSIAYMEIRGLTSEDSAVYYCARDDYDASPFAYWGQGTLVTVSA
DVD-L: EVQLVESGGGLIQPGGSLRLSCAASGFTVSRNYMSWVRQAPGKGLEWVSVIYSGDRTYYADSVKGRFTISRDNSKNTLYLQMNSLRAEDTAVYYCARGEGGFDYWGQGTLVTVSSASTKGPDVQMIQSPSSLSASLGDIVTMTCQASQGTSINLNWFQQKPGKAPKLLIYGSSNLEDGVPSRFSGSRYGTDFTLTISSLEDEDLATYFCLQHSYLPYTFGGGTKLEIK
notes: VH/VL crossover DVD-Ig; also called DVD1990H + DVD1990L; copies: 2 + 2
In the case of B4, in assay [4], the dissociation constant Kd came to 0.016 nM, the dissociation rate constant (koff) came to 4.5e-05 s⁻¹ and the kon came out at 2.8e+06 M⁻¹ s⁻¹. For the same molecule, in assay [6], the Kd worked out at 0.33 nM, the koff was found to be 0.00058 s⁻¹ and the kon worked out at 1.8e+06 M⁻¹ s⁻¹. The “N-Terminal VD TNFa Neutralization Assay IC50 (L929 cells)” value in assay [2] was found to be 0.408 nM. Also, in assay [7], the “C-Terminal VD SOST Neutralization Assay IC50 (Wnt-1/luciferase HEK clone #14)” value was over 250 nM.

B5: DVD1961 (bispecific antibody)
heavy: DIQMTQSPSSLSASVGDRVTITCRASQSISNNLNWYQQKPGKAPKLLIYYTSRFHSGVPSRFSGSGSGTDFTFTISSLQPEDIATYYCQQEHTLPYTFGQGTKLEIKRTVAAPQVQLKESGPGLVAPSQSLSITCTVSGFSLTDYGVNWVRQPPGKGLEWLGMIWGDGSTDYDSTLKSRLSISKDNSKSQIFLKMNSLQTDDTARYYCAREWHHGPVAYWGQGTLVTVSA
light: QVQLQESGPGLVKPSETLSLTCTVSGFSLIGYDLNWIRQPPGKGLEWIGIIWGDGTTDYNSAVKSRVTISKDTSKNQFSLKLSSVTAADTAVYYCARGGYWYATSYYFDYWGQGTLVTVSSASTKGPDIVMTQSHKFMSTTVGDRVSITCKASQAVSSAVAWYQQKPGQSPKLLIYWASTRHTGVPDRFTGSGSVTDFTLTIHNLQAEDLALYYCQQHYSTPFTFGSGTKLEIK
notes: VH/VL crossover DVD-Ig; also called DVD1961H + DVD1961L
For B5, the “N-Terminal VD NGF Neutralization Assay IC50 (TF-1 cell proliferation)” value in assay [1] stood at 0.132 nM. In assay [3], the Kd is under 0.00031 nM, the koff was under 1e-06 s⁻¹ and the kon came out at 3.2e+06 M⁻¹ s⁻¹. In assay [4], the Kd was 0.58 nM, the off-rate (koff) worked out at 9.9e-05 s⁻¹ and the kon is 170000 M⁻¹ s⁻¹. In assay [2], the “C-Terminal VD TNFα Neutralization Assay IC50 (L929 cells)” value is 4.02 nM.

B6: DVD1991 (bispecific antibody)
DVD-H: DVQMIQSPSSLSASLGDIVTMTCQASQGTSINLNWFQQKPGKAPKLLIYGSSNLEDGVPSRFSGSRYGTDFTLTISSLEDEDLATYFCLQHSYLPYTFGGGTKLEIKRTVAAPEVQLVESGGGLIQPGGSLRLSCAASGFTVSRNYMSWVRQAPGKGLEWVSVIYSGDRTYYADSVKGRFTISRDNSKNTLYLQMNSLRAEDTAVYYCARGEGGFDYWGQGTLVTVSS
DVD-L: EVQLQQSGPELVTPGASVKISCKASGYTFTDHYMSWVKQSHGKSLEWIGDINPYSGETTYNQKFKGTATLTVDKSSSIAYMEIRGLTSEDSAVYYCARDDYDASPFAYWGQGTLVTVSAASTKGPEIVMTQSPATLSVSPGERATLSCRASQSVSSNLAWYQQKPGQAPRLLIHGASIRATGLPARFSGSGSGTEFTLTISSLQSEDFAVYYCQQYNYWWTFGQGTKVEIK
notes: VH/VL crossover DVD-Ig; also called DVD1991H + DVD1991L; copies: 2 + 2
Turning to B6, in assay [4], the dissociation constant Kd came to 0.66 nM, the koff stood at 7.1e-05 s⁻¹ and the kon stood at 110000 M⁻¹ s⁻¹. Besides, in assay [6], the dissociation constant (Kd) is 0.017 nM, the off-rate (koff) is 0.00025 s⁻¹ and the kon amounted to 1.5e+07 M⁻¹ s⁻¹. Besides, the “C-Terminal VD TNFα Neutralization Assay IC50 (L929 cells)” value in assay [2] was 0.401 nM. The “N-Terminal VD SOST Neutralization Assay IC50 (Wnt-1/luciferase HEK clone #14)” value in assay [7] was 36 nM.
